From article PMC9170038, “Crowdsourced RNA design discovers diverse, reversible, efficient, self-contained molecular switches” come the findings set out here.

B1: Eterna 7739921 (Exclusion - Arginine B) (ssRNA)
RNA: UGAUAGGACAGAAGGAGCGGCAGUGAUGUUGCCAAAAGGGUAAGGUGUCAAAAGACACCCUGCCAGGUAGGUCGCUGUCCUAUCU
B2: Eterna 14907 (Exclusion 2) (ssRNA)
RNA: GUGUAGUUAGGAUAUGCUGGAAUCUAGCGAAGCUAGGUUCCACAUGAGGAUCACCCAUGUAGAAGGGACUACAC
B3: Eterna 7734632 (Exclusion - FMN B) (ssRNA)
RNA: CAUACGCAUGGAGGAUAUGAGAUUUUUCAUAUUAUUUUUUAUUCUCAGUGAUGUUGGGAUUUAUAAUCAGAAGGCCAUGUGUAUG
B4: Eterna 6423537 (Small Loop Exclusion NG 1) (ssRNA)
RNA: GAGUAGAUCCGAGGAUAUACAAUCCGGAAACGGUACAUGAGGAUCACCCAUGUAGAAGGCGGAUCUACAGGUACUAAAGUACCU
B5: Eterna 6451279 (Small Loop Same State NG 3) (ssRNA)
RNA: ACAUGAGGAUCACCCAUGUAAAGCGAGGAUAUUUCACUGCACAUGAGGUUCGCCCAUGUUCUGCGGAAGAAGGUGCAAAUAAUU
B6: Eterna 6102128 (Same State NG 3) (ssRNA)
RNA: AAAACAUGAGGAUCACCCAUGUAAAUAUCGGUUAAUUGUUGUGAGGAUAUACUAAAUUUUAAGAAGUAGAAGGCACUGGGUACA
B7: Eterna 7672999 (Same State - Tryptophan B) (ssRNA)
RNA: UGGUACAUGGCGGCCGCCACUUCACGUAAAAUAAAAACUUGAGGAUCACCCAAGUAAUAAGUUGGGAGGACCGGGUCAUGUACCU
B8: Eterna 1268 (Exclusion - Tryptophan B) (ssRNA)
RNA: AAGCCAUACUCGGCCGCCACUUACUUCGUUGCAGUGAUGUUGCACACGAAUCCGUCAUAGCAAAUAAGGACCGGGAGAUAUACCG
B9: Eterna 7670643 (Exclusion - Theophylline B) (ssRNA)
RNA: UGACAUUGCUCAGAUACCAGACGUGAGCAUCAGCCAUGUGCCAACAAGUACAAAAUAAAUGUCCCUUGGCAGCUGAGCAAUGUCU
B10: Eterna 6453430 (Inverted Small Loop Exclusion NG 3) (ssRNA)
RNA: AGGUAAGACUUAAUUGUGCUGGUGAGAAGGCAAAUGGUUGUGAUUAACAUGAGGAUCACCCAUGUUGAGGAUAUCAUCGGUAUC
B11: Eterna 1541 (Same State - FMN A) (ssRNA)
RNA: AAGUGGGAACGGCCCAAUAAAGUGUUUGUCAAGGAUAUUAUUCACAUAAGAAGGUGACAGACCACCUCCGGAGUGAUGUUUUGGA
B12: Eterna 7734297 (Exclusion - Theophylline B) (ssRNA)
RNA: GGCCGAUGGUGCGAUACCAGCUUGAGUGUACUGGCCAGGUACAUGAGGAUCACCCAUGUAAGCCCUUGGCAGCGCGUCAGAGGCC
B13: Eterna 7712196 (Same State - FMN B) (ssRNA)
RNA: AGAGUUAUGCGAGGAUAUGCAGUUAGUACUCAAAGAGUACUAACGCAGAGUGAUGUUCUGUGAAACGCAGAAGGUGCAUAACUCA
B14: Eterna 7643338 (Exclusion - Arginine B) (ssRNA)
RNA: UUAUAUUAUCGAAGGAGCGUCACAUGAGGAUCACCCAUGUACAUGAGGAUCACCCAUGUGUGGCAGGUAGGUCGCGAUAUAUAAC
B15: Eterna 6398784 (Exclusion NG 1) (ssRNA)
RNA: CCUGCACCUCAAGGAUAUCCAGUCGAAACGACUGGAGAAGGUGAGGAUCACCCACCUAGCCUGACGAAAGUCAGGCAUGCAGGA
B16: Eterna 7714851 (Same State - Theophylline B) (ssRNA)
RNA: AGAACUGUCUGAGAUACCAGCCAGGAAGUGAUGUUUCCAGCUCCACGAAAGUGGAGCCAUGGCCCUUGGCAGCUCAGACAGUUCA
B17: Eterna 7723566 (Exclusion - Tryptophan A) (ssRNA)
RNA: AUGUCGUUAUAGUGAGUGAUGUUCACUGUGCGAGGACCGGUACGGCCGCCACUCGAGAGUGGUGGACACUGAGUCACUCUGACAC
B18: Eterna 7685253 (Same State - Tryptophan B) (ssRNA)
RNA: AGACGCCAGUCGGCCGCCACUCACAGCAGUGAUGUUGCUGAAAAUCUAGAAGAGUGAUGUUCUUAGAGGACCGGGACUCCAGUCG
B19: Eterna 7685224 (Exclusion - Theophylline B) (ssRNA)
RNA: AAUUUAUUAACUGAUACCAGACUUAAUUAAUUGUAAAUUACUAGUGAUGUUAGUGAUUCUGUCCCUUGGCAGCAGUAUUUAUUAA
B20: Eterna 6108976 (Same State NG 2) (ssRNA)
RNA: GUAGCAUACCGAGGAUAUUCAUAUAAUAAAUAAACAUGAGGACCACCCAUGUGGCGAAAGCCUUGGGAGAAGGCGGAAUGCUAC
B21: Eterna 6148811 (Same State NG 2) (ssRNA)
RNA: UGAAUCAAUACAGGAUAUGGUGACGCACAUGAGGAUCACCCAUGUCCGCAGCGUGCUCAGCACGCCCAGAAGGGUAUUGAUCCG
B22: Eterna 7682758 (Exclusion - Arginine A) (ssRNA)
RNA: AAUUUACAUUAAUUAUUUAAAGGUUCAGAAGGAGCGUGAAUUAACACAGGUAGGUCGCUGAGCGAGUGAUGUUCGCUAUAUACUA
B23: Eterna 7682834 (Same State - Tryptophan A) (ssRNA)
RNA: UGUCAUGGAAACAUGAACGUUGAUGUUCGACGAGGACCGGUACGGCCGCCACUCGAGUAAUAGUCAGUGAUGUUGACUUGUUUAA
B24: Eterna 6147986 (Exclusion NG 1) (ssRNA)
RNA: GCAAUGUGAUAAGGAUAUCCAAUGGCAUCCCUAGGAGAAGGUAUCACAUGAGGAUCACCCAUGUGAAGGACGGGUUAUCGCAAA
B25: Eterna 7687729 (Same State - FMN B) (ssRNA)
RNA: AUUUUUAACUGAGGAUAUCGAAUUUAUGUAGUGAUGUUACUUUAAAUUAAAAUUUUAAUUUCUUAACGAGAAGGCAGAAUAAUUA
B26: Eterna 15907 (Sensor v3, turn-off variant 2) (ssRNA)
RNA: AGUAACCGUCACGAAAGUGAUGGUUACGCAAGUAAAUGUACAUGAGGAUCACCCAUGUCCUCAUUUGCUCGUCUUAU
B27: Eterna 12517 (Exclusion 2) (ssRNA)
RNA: AAUGGCUGAGGAUAUACACUCACGUCUAAAAGGUUCAAAUGACAUGAGGAUCACCCAUGUAGAAGGCAGCCCGA
B28: Eterna 7684757 (Exclusion - Tryptophan B) (ssRNA)
RNA: AAUAAAAUCACGGCCGCCACUGAUUACCAUAUUAGGAGUGAUGUUCCUAUGACUAUAUAAUUUAACAGGACCGGGUGAAUAUUUA
B29: Eterna 12520 (Exclusion 2) (ssRNA)
RNA: AAACAGGGAGGAUAUACAUAGAUCCUCUAACCUAAUUGGUCACAUGAGGAUCACCCAUGUAGAAGGCCCUUAGG
B30: Eterna 7681870 (Exclusion - Theophylline B) (ssRNA)
RNA: CCUAUCUCAUACGAUACCAGUCAACGAGUGAUGUUCGAAUAAAUAAAUUUGCCAAAUAAUGACCCUUGGCAGCGUAUGGGAUAGG
B31: Eterna 5942428 (Same State NG 3) (ssRNA)
RNA: GUGGUCAGACAUGAGGAUCACCCAUGUGGAAUAAAUAACACACAGGAUAUCAAAUAUAAAAUAUAUGAGAAGGGUGGAUUGGUG
B32: Eterna 12408 (Exclusion 4) (ssRNA)
RNA: CAUUUGUGAGGAUAUCAGGUGUGCUAGCGUACUGGUACAUCUGAGAAGGCACAUGAGGAUCACCCAUGUUUCUU
B33: Eterna 6393566 (Inverted Small Loop Exclusion NG 3) (ssRNA)
RNA: AGCACGAAAGUGCAACGAUGUACGAGAAGGACAUGAGGAUCACCCAUGUUGCUGUAACUGCUUAUGUAGGAUAUCGUACAUCGA
B34: Eterna 12456 (Exclusion 4) (ssRNA)
RNA: GUAAAGUGAGGAUAUGGUAAAUUAAUUAUUAAUUAAUUAAUCCAGAAGGCACAUGAGGAUCACCCAUGUAAUUG
B35: Eterna 7722469 (Exclusion - FMN A) (ssRNA)
RNA: AUUUAGACGAGUGAUGUUCGUGUUAUUACAGAGGAUAUGCGUAAUUGCAGAAGGCUGUAUUUAUAUAUGUUAUGUAGUUUUAAAA
B36: Eterna 7687231 (Exclusion - Arginine A) (ssRNA)
RNA: AAUGUACAAGUGAUGUUUGUACUUUCCGAAGGAGCGUCUAAUAAGACAGGUAGGUCGCGGAUUCUCUAAAUUAUCAGGUCAUUAA
B37: Eterna 7754813 (Same State - Tryptophan B) (ssRNA)
RNA: UAGUAGCUCUCGGCCGCCACUCCUCAGUGAUGUUGAGAUAUUAAGAGCCAAUUGGCUCAUAUAAAGAGGACCGGGAGAGCUACAU
B38: Eterna 7709711 (Same State - Tryptophan B) (ssRNA)
RNA: UAUAUAGUGACGGCCGCCACUAUUGUGAUGUAGUUGUUAGAGUGAUGUUUUGUUGUUUGAUUUUGUAGGACCGGGUUAUAUGUUA

The target of the data set is MS2 coat protein, dlFG mutant (Escherichia phage MS2, UniProt P03612, del68-81insG). Put plainly: 4 mM Mg2+; no ligand; RNA-MaP array; 100 mM Tris-HCl pH 7.5, 80 mM KCl, 4 mM MgCl2, 0.1 mg/mL BSA, 1 mM DTT, 0.01 mg/mL yeast tRNA, 0.01% Tween-20; protein 1.5 nM to 3 uM; 37 C (Table S3). Conditions: chain copies: 2; label: tethered by stalled RNA polymerase.
As for B1, the Kd was more than 3000 nM. On to B2, for which the affinity, expressed as Kd, was 253 nM. The same measure for B3: more than 3000 nM; for B4: 5.63 nM. B5 showed a dissociation constant Kd of 82.6 nM. This Kd is about 15-fold higher than that of the molecule before.

Molecule B6 showed a Kd of 24.4 nM. This Kd is about 3.4-fold lower than that of the molecule before. The result for B7 reads 19 nM; that for B8, more than 3000 nM; that for B9, 16.6 nM. The result for B10 reads 500 nM; that for B11, more than 3000 nM. Molecule B12 came in with a Kd of 10.6 nM. With B13, the dissociation constant (Kd) was more than 3000 nM. The same measure for B14: 226 nM. The result for B15 reads 14.4 nM. On to B16, for which the Kd was more than 3000 nM. In turn, B17 showed a dissociation constant (Kd) of more than 3000 nM. Consider B18, for which the Kd was more than 3000 nM.

In turn, B19 gave a dissociation constant (Kd) of more than 3000 nM. B20 yielded an equilibrium dissociation constant (Kd) of 1050 nM. In turn, B21 returned a Kd of 816 nM. Take B22: the Kd is more than 3000 nM. For B23, the dissociation constant Kd was more than 3000 nM. For the molecule UUUUCAGAACUUAUUU (ssRNA) [Eterna 3 (ShortRNAControl)], the dissociation constant Kd is more than 3000 nM. The result for B24 reads 54.1 nM; that for B25, more than 3000 nM. The same measure for B26: 204 nM; for B27: 103 nM; for B28: more than 3000 nM. On to B29, for which the Kd came out at 11.8 nM. The same measure for B30: more than 3000 nM; for B31: 387 nM. B32 gave a Kd of 15.8 nM. Consider B33, for which the dissociation constant (Kd) amounted to 5.14 nM. As for B34, the Kd was 24.8 nM. For AAAGCAUGACGCGCUUUCAAGCGUGGCGAGUAUAAA (ssRNA) [Eterna 2 (No-binding control)], the Kd is more than 3000 nM. The result for B35 reads more than 3000 nM. The same measure for B36: more than 3000 nM; for B37: more than 3000 nM; for B38: more than 3000 nM.

One may read the Kd as the constant that tells how readily two partners part at equilibrium. Low values mean higher affinity, high ones lower affinity.
